In patent US20110044980A1 (AbbVie / Abbott, published 2011):

Tests used:
[1] = target: T1, NKG2D (human, UniProt P26718 1-216); assay: flow cytometry (FACSCalibur), activated NK cells, 10 ug/ml, R-PE GMFI on CD56+ live cells
T1 construct: whole, on cells; also called NKGD
T1 sequence (looked up): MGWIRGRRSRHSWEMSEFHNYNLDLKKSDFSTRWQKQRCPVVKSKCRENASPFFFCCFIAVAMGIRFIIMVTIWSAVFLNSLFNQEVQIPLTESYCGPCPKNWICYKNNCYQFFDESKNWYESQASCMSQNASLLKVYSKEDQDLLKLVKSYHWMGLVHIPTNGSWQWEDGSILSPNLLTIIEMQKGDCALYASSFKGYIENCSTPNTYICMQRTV

[2] = target: T1, NKG2D; assay: flow cytometry (FACSCanto), cells carrying the target (line not given), 2 ug/mL

B1: DVD1215 (bispecific antibody)
VH: QVQLQESGPGLVKPSQTLSLTCTVSGYSISSDFAWNWIRQPPGKGLEWMGYISYSGNTRYQPSLKSRITISRDTSKNQFFLKLNSVTAADTATYYCVTAGRGFPYWGQGTLVTVSSASTKGPSVFPLAPQVQLVESGGGLVKPGGSLRLSCAASGFTFSSYGMHWVRQAPGKGLEWVAFIRYDGSNKYYADSVKGRFTISRDNSKNTLYLQMNSLRAEDTAVYYCAKDRGLGDGTYFDYWGQGTTVTVSS
VL: DIQMTQSPSSMSVSVGDRVTITCHSSQDINSNIGWLQQKPGKSFKGLIYHGTNLDDGVPSRFSGSGSGTDYTLTISSLQPEDFATYYCVQYAQFPWTFGGGTKLEIKRTVAAPSVFIFPPQSALTQPASVSGSPGQSITISCSGSSSNIGNNAVNWYQQLPGKAPKLLIYYDDLLPSGVSDRFSGSKSGTSAFLAISGLQSEDEADYYCAAWDDSLNGPVFGGGTKLTVLG
notes: DVD-Ig; dual variable domains only; Outer AB064, inner AB121; also called DVD1215H + DVD1215L
FACS Geometric Mean C-terminal [1]: 31.7

B2: DVD1214 (bispecific antibody)
VH: QVQLVESGGGLVKPGGSLRLSCAASGFTFSSYGMHWVRQAPGKGLEWVAFIRYDGSNKYYADSVKGRFTISRDNSKNTLYLQMNSLRAEDTAVYYCAKDRGLGDGTYFDYWGQGTTVTVSSASTKGPSVFPLAPQVQLQESGPGLVKPSQTLSLTCTVSGYSISSDFAWNWIRQPPGKGLEWMGYISYSGNTRYQPSLKSRITISRDTSKNQFFLKLNSVTAADTATYYCVTAGRGFPYWGQGTLVTVSS
VL: QSALTQPASVSGSPGQSITISCSGSSSNIGNNAVNWYQQLPGKAPKLLIYYDDLLPSGVSDRFSGSKSGTSAFLAISGLQSEDEADYYCAAWDDSLNGPVFGGGTKLTVLGQPKAAPSVTLFPPDIQMTQSPSSMSVSVGDRVTITCHSSQDINSNIGWLQQKPGKSFKGLIYHGTNLDDGVPSRFSGSGSGTDYTLTISSLQPEDFATYYCVQYAQFPWTFGGGTKLEIKR
notes: DVD-Ig; dual variable domains only; Outer AB121, inner AB064; also called DVD1214H + DVD1214L
FACS Geometric Mean N-terminal [1]: 33.8

B3: AB121 (antibody, V domains shown)
VH: QVQLVESGGGLVKPGGSLRLSCAASGFTFSSYGMHWVRQAPGKGLEWVAFIRYDGSNKYYADSVKGRFTISRDNSKNTLYLQMNSLRAEDTAVYYCAKDRGLGDGTYFDYWGQGTTVTVSS
VL: QSALTQPASVSGSPGQSITISCSGSSSNIGNNAVNWYQQLPGKAPKLLIYYDDLLPSGVSDRFSGSKSGTSAFLAISGLQSEDEADYYCAAWDDSLNGPVFGGGTKLTVLG
notes: also called NKGD (KYK-2.0); anti-NKG2D parent antibody
FACS Geometric Mean [2]: 284
FACS Geometric Mean [1]: 31.1

B4: DVD1055 (bispecific antibody)
VH: QVQLQQSGAELVRPGSSVKISCKASGYAFSSYWMNWVKQRPGQGLEWIGQIWPGDGDTNYNGKFKGKATLTADESSSTAYMQLSSLASEDSAVYFCARRETTTVGRYYYAMDYWGQGTSVTVSSASTKGPSVFPLAPQVQLVESGGGLVKPGGSLRLSCAASGFTFSSYGMHWVRQAPGKGLEWVAFIRYDGSNKYYADSVKGRFTISRDNSKNTLYLQMNSLRAEDTAVYYCAKDRGLGDGTYFDYWGQGTTVTVSS
VL: DILLTQTPASLAVSLGQRATISCKASQSVDYDGDSYLNWYQQIPGQPPKLLIYDASNLVSGIPPRFSGSGSGTDFTLNIHPVEKVDAATYHCQQSTEDPWTFGGGTKLEIKRTVAAPSVFIFPPQSALTQPASVSGSPGQSITISCSGSSSNIGNNAVNWYQQLPGKAPKLLIYYDDLLPSGVSDRFSGSKSGTSAFLAISGLQSEDEADYYCAAWDDSLNGPVFGGGTKLTVLG
notes: DVD-Ig; dual variable domains only; Outer AB006, inner AB121; also called DVD1055H + DVD1055L
FACS Geometric Mean C-terminal [1]: 21.2

B5: DVD1054 (bispecific antibody)
VH: QVQLVESGGGLVKPGGSLRLSCAASGFTFSSYGMHWVRQAPGKGLEWVAFIRYDGSNKYYADSVKGRFTISRDNSKNTLYLQMNSLRAEDTAVYYCAKDRGLGDGTYFDYWGQGTTVTVSSASTKGPSVFPLAPQVQLQQSGAELVRPGSSVKISCKASGYAFSSYWMNWVKQRPGQGLEWIGQIWPGDGDTNYNGKFKGKATLTADESSSTAYMQLSSLASEDSAVYFCARRETTTVGRYYYAMDYWGQGTSVTVSS
VL: QSALTQPASVSGSPGQSITISCSGSSSNIGNNAVNWYQQLPGKAPKLLIYYDDLLPSGVSDRFSGSKSGTSAFLAISGLQSEDEADYYCAAWDDSLNGPVFGGGTKLTVLGQPKAAPSVTLFPPDILLTQTPASLAVSLGQRATISCKASQSVDYDGDSYLNWYQQIPGQPPKLLIYDASNLVSGIPPRFSGSGSGTDFTLNIHPVEKVDAATYHCQQSTEDPWTFGGGTKLEIKR
notes: DVD-Ig; dual variable domains only; Outer AB121, inner AB006; also called DVD1054H + DVD1054L
FACS Geometric Mean N-terminal [1]: 28.3

B6: DVD1052 (bispecific antibody)
VH: QVQLVESGGGLVKPGGSLRLSCAASGFTFSSYGMHWVRQAPGKGLEWVAFIRYDGSNKYYADSVKGRFTISRDNSKNTLYLQMNSLRAEDTAVYYCAKDRGLGDGTYFDYWGQGTTVTVSSASTKGPSVFPLAPQVQLQQPGAELVKPGASVKMSCKASGYTFTSYNMHWVKQTPGRGLEWIGAIYPGNGDTSYNQKFKGKATLTADKSSSTAYMQLSSLTSEDSAVYYCARSTYYGGDWYFNVWGAGTTVTVSA
VL: QSALTQPASVSGSPGQSITISCSGSSSNIGNNAVNWYQQLPGKAPKLLIYYDDLLPSGVSDRFSGSKSGTSAFLAISGLQSEDEADYYCAAWDDSLNGPVFGGGTKLTVLGQPKAAPSVTLFPPQIVLSQSPAILSPSPGEKVTMTCRASSSVSYIHWFQQKPGSSPKPWIYATSNLASGVPVRFSGSGSGTSYSLTISRVEAEDAATYYCQQWTSNPPTFGGGTKLEIKR
notes: DVD-Ig; the entries are the dual variable domains (outer VD - linker - inner VD) without constant domains; Outer AB121, inner AB001; also called NKG2D / CD-20 DVD-Ig; DVD1052H + DVD1052L
FACS Geometric Mean N-terminal [1]: 36.4

B7: DVD1053 (bispecific antibody)
VH: QVQLQQPGAELVKPGASVKMSCKASGYTFTSYNMHWVKQTPGRGLEWIGAIYPGNGDTSYNQKFKGKATLTADKSSSTAYMQLSSLTSEDSAVYYCARSTYYGGDWYFNVWGAGTTVTVSAASTKGPSVFPLAPQVQLVESGGGLVKPGGSLRLSCAASGFTFSSYGMHWVRQAPGKGLEWVAFIRYDGSNKYYADSVKGRFTISRDNSKNTLYLQMNSLRAEDTAVYYCAKDRGLGDGTYFDYWGQGTTVTVSS
VL: QIVLSQSPAILSPSPGEKVTMTCRASSSVSYIHWFQQKPGSSPKPWIYATSNLASGVPVRFSGSGSGTSYSLTISRVEAEDAATYYCQQWTSNPPTFGGGTKLEIKRTVAAPSVFIFPPQSALTQPASVSGSPGQSITISCSGSSSNIGNNAVNWYQQLPGKAPKLLIYYDDLLPSGVSDRFSGSKSGTSAFLAISGLQSEDEADYYCAAWDDSLNGPVFGGGTKLTVLG
notes: DVD-Ig; dual variable domains only; Outer AB001, inner AB121; also called CD-20 / NKG2D DVD-Ig; DVD1053H + DVD1053L
FACS Geometric Mean C-terminal [1]: 31.7
